Residue numbers refer to the chain shown, from its start.
T1: human B7H3 (CD276) on the cell surface (human, UniProt Q5ZPR3 29-534)
T1 construct: B7H3 on A375 and other B7H3-positive or transfected cells
T1 sequence: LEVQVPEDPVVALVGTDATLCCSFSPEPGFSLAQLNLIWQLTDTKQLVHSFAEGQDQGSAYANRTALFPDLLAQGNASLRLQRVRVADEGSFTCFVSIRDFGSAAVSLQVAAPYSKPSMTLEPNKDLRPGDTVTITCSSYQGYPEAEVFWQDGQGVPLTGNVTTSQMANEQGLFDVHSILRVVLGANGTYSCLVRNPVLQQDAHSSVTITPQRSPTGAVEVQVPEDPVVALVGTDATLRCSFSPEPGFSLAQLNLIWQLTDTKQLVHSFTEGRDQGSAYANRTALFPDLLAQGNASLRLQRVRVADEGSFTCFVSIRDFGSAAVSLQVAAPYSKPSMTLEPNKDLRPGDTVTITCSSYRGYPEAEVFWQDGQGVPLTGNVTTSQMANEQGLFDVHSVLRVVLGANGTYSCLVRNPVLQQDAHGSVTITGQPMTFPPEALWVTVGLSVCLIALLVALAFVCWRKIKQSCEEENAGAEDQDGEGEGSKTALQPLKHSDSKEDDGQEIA

B1: cx3090 (bispecific antibody, not shown: a dimerising Fc or GST)
chain 1: EVQLVESGGGEVQPGGSLRLSCAASGSTFSSYHMSWFRQAPGKQREPVATSHHGGTTNYAGSVKGRFTISRDNAKNTVYLQMNTLRAEDTAVYYCKADHGYQGRGYWGQGTLVTVKPGGSGGGGIEPDIGGSGGSEVQLVESGGGLVQPGGSLRLSCAASGFTFNTYAMNWVRQAPGKCLEWVARIRSKYNNYATYYADSVKGRFTISRDDAKNTLYLQMSSLRAEDTAVYYCVRHGNFGNSYVSWFAYWGQGTLVTVKPEVQLVESGGGEVQPGGSLRLSCAPSERTFSTYTMGWFRQAPGKEREFVAVVNWGGGSKYYAESVKGRFTISRDNAKNTVYLQMSSLRAEDTAVYYCAAGGAYSGPYYDTRQYTYWGQGTLVTVKP
chain 2: GGSGGGGIEPDIGGSGGSQAVVTQEPSLTVSPGGTVTLTCGSSTGAVTTSNYANWVQQKPGQAFRGLIGGTNKRAPGVPARFSGSLLGGKAALTISGAQPEDEADYYCALWYSNHWVFGCGTKLTVLEVQLLESGGGEVQPGGSLRLSCAASGFSFSINAMGWYRQAPGKRREFVAAIESGRNTVYAESVKGRFTISRDNAKNTVYLQMSSLRAEDTAVYYCGLLKGNRVVSPSVAYWGQGTLVTVKP
notes: chain 2 ends in the 4-1BB sdAb RH3v5-1
B2: cx3243 (bispecific antibody, not shown: a dimerising Fc or GST)
chain 1: B1 chain 1 with S120G, G123S, I125G, E126G, P127G, D128G, I129S, S132G
chain 2: B1 chain 2 with S3G, G6S, I8G, E9G, P10G, D11G, I12S, S15G
notes: as for B1
B3: cx4136 (bispecific antibody)
chain 1: EVQLVESGGGEVQPGGSLRLSCAASGSTFSSYHMSWFRQAPGKQREPVATSHHGGTTNYAGSVKGRFTISRDNAKNTVYLQMNTLRAEDTAVYYCKADHGYQGRGYWGQGTLVTVKPDKTHTCPPCPAPGGPSVFLFPPKPKDTLMISRTPEVTCVVVDVSHEDPEVKFNWYVDGVEVHNAKTKPREEQYNSTYRVVSVLTVLHQDWLNGKEYKCKVSNKALPAPIEKTISKAKGQPREPQVYTLPPCRDELTKNQVSLWCLVKGFYPSDIAVEWESNGQPENNYKTTPPVLDSDGSFFLYSKLTVDKSRWQQGNVFSCSVMHEALHNHYTQKSLSLSPTGGGGGSGGGGGSGGGGGSEVQLVESGGGLVQPGGSLRLSCAASGFTFNTYAMNWVRQAPGKCLEWVARIRSKYNNYATYYADSVKGRFTISRDDAKNTLYLQMSSLRAEDTAVYYCVRHGNFGNSYVSWFAYWGQGTLVTVKPEVQLVESGGGEVQPGGSLRLSCAASGSTFSSYHMSWFRQAPGKQREPVATSHHGGTTNYAGSVKGRFTISRDNAKNTVYLQMNTLRAEDTAVYYCKADHGYQGRGYWGQGTLVTVKP
chain 2: DKTHTCPPCPAPGGPSVFLFPPKPKDTLMISRTPEVTCVVVDVSHEDPEVKFNWYVDGVEVHNAKTKPREEQYNSTYRVVSVLTVLHQDWLNGKEYKCKVSNKALPAPIEKTISKAKGQPREPQVCTLPPSRDELTKNQVSLSCAVKGFYPSDIAVEWESNGQPENNYKTTPPVLDSDGSFFLVSKLTVDKSRWQQGNVFSCSVMHEALHNRYTQKSLSLSPTGGGGGSGGGGGSGGGGGSQAVVTQEPSLTVSPGGTVTLTCGSSTGAVTTSNYANWVQQKPGQAFRGLIGGTNKRAPGVPARFSGSLLGGKAALTISGAQPEDEADYYCALWYSNHWVFGCGTKLTVL
B4: cx4137 (bispecific antibody)
chain 1: B3 chain 1
chain 2: DKTHTCPPCPAPGGPSVFLFPPKPKDTLMISRTPEVTCVVVDVSHEDPEVKFNWYVDGVEVHNAKTKPREEQYNSTYRVVSVLTVLHQDWLNGKEYKCKVSNKALPAPIEKTISKAKGQPREPQVCTLPPSRDELTKNQVSLSCAVKGFYPSDIAVEWESNGQPENNYKTTPPVLDSDGSFFLVSKLTVDKSRWQQGNVFSCSVMHEALHNRYTQKSLSLSPTGGGGGSGGGGGSGGGGGSQAVVTQEPSLTVSPGGTVTLTCGSSTGAVTTSNYANWVQQKPGQAFRGLIGGTNKRAPGVPARFSGSLLGGKAALTISGAQPEDEADYYCALWYSNHWVFGCGTKLTVLEVQLLESGGGEVQPGGSLRLSCAASGFSFSINAMGWYRQAPGKRREFVAAIESGRNTVYAESVKGRFTISRDNAKNTVYLQMSSLRAEDTAVYYCGLLKGNRVVSPSVAYWGQGTLVTVKP
notes: as for B1
B5: cx4641 (bispecific antibody)
chain 1: EVQLVESGGGEVQPGGSLRLSCAASGSTFSSYHMSWFRQAPGKQREPVATSHHGGTTNYAGSVKGRFTISRDNAKNTVYLQMNTLRAEDTAVYYCKADHGYQGRGYWGQGTLVTVKPDKTHTCPPCPAPGGPSVFLFPPKPKDTLMISRTPEVTCVVVDVSHEDPEVKFNWYVDGVEVHNAKTKPREEQYNSTYRVVSVLTVLHQDWLNGKEYKCKVSNKALPAPIEKTISKAKGQPREPQVYTLPPCRDELTKNQVSLWCLVKGFYPSDIAVEWESNGQPENNYKTTPPVLDSDGSFFLYSKLTVDKSRWQQGNVFSCSVMHEALHNHYTQKSLSLSPTGGSGGGGIEPDIGGSGGSEVQLVESGGGLVQPGGSLRLSCAASGFTFNTYAMNWVRQAPGKCLEWVARIRSKYNNYATYYADSVKGRFTISRDDAKNTLYLQMSSLRAEDTAVYYCVRHGNFGNSYVSWFAYWGQGTLVTVKPQLQLQESGGGLVQAGDSLRLSCAASGFSFGSNVMMWVRQAPGKGPEWVSTIYSSGTGTFYADSVKGRFTISRNNAKNTLYLQMNSLKPDDTAVYYCATSGPVRGWGPRSQGTLVTVKP
chain 2: B3 chain 2 with G226S, S229G, G231I, G232E, G233P, G234D, S235I, G238S
notes: Printed composition is the same as cx4645
B6: cx3072 (bispecific antibody)
chain 1: EVQLVESGGGEVQPGGSLRLSCAASGSTFSSYHMSWFRQAPGKQREPVATSHHGGTTNYAGSVKGRFTISRDNAKNTVYLQMNTLRAEDTAVYYCKADHGYQGRGYWGQGTLVTVKPPGGGGDKTHTCPPCPAPELLGGPSVFLFPPKPKDTLMISRTPEVTCVVVDVSHEDPEVKFNWYVDGVEVHNAKTKPREEQYNSTYRVVSVLTVLHQDWLNGKEYKCKVSNKALPAPIEKTISKAKGQPREPQVYTLPPCRDELTKNQVSLWCLVKGFYPSDIAVEWESNGQPENNYKTTPPVLDSDGSFFLYSKLTVDKSRWQQGNVFSCSVMHEALHNHYTQKSLSLSPTGGGGGSGGGGGSGGGGGSEVQLVESGGGLVQPGGSLRLSCAASGFTFNTYAMNWVRQAPGKCLEWVARIRSKYNNYATYYADSVKGRFTISRDDAKNTLYLQMSSLRAEDTAVYYCVRHGNFGNSYVSWFAYWGQGTLVTVKPGGGGEVQLVESGGGEVQPGGSLRLSCAPSERTFSTYTMGWFRQAPGKEREFVAVVNWGGGSKYYAESVKGRFTISRDNAKNTVYLQMSSLRAEDTAVYYCAAGGAYSGPYYDTRQYTYWGQGTLVTVKP
chain 2: not shown
notes: IgG1-Hole 294, 298 or 446; VH13 237; VL10 265)

biological target: T2, CD3 on the surface of human T cells (human, UniProt P07766 23-207); test: flow cytometry on primary human T cells; column head 'Affinity CD3'
T2 construct: whole, on cells; Part of the CD3/TCR complex on cells; also called CD3 epsilon
T2 sequence (P07766 23-207): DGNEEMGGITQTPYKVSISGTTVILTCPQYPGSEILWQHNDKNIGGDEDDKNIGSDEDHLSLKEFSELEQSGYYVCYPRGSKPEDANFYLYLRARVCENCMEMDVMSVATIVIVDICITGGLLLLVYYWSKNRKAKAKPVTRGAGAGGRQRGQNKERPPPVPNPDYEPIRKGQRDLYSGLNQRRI
Protocol: (§1) Binding of exemplary B7H3-targeting constrained CD3 engaging constructs set forth in Table E3 to CD3 on the surface of primary T cells or B7H3-expressing cells (A375) was assessed by flow cytometry. The T cells were primary T-cells that were negatively enriched from PBMCs isolated from healthy human donor peripheral blood leukopaks. Bound construct was detected with fluorophore-conjugated secondary antibodies specific for the human Fc (anti-human IgG APC secondary antibody) and binding was measured by flow cytometry. Cells incubated with secondary antibody only served as negative controls. Binding was compared to Dual-affinity Re-targeting Antibody (DART)-monomeric Fc format targeting B7H3 and CD3 (DART-Fc B7H3xCD3; see e.g. WO2017030926A1).
(§2) Table E4 summarizes the affinity of exemplary molecules for B7H3 or CD3, as determined from flow cytometry, in these studies.

| Kd | Binder |
| --- | --- |
| > 200 nM | B1 |
| > 200 nM | B2 |
| > 200 nM | B3 |
| > 200 nM | B4 |
| > 200 nM | B5 |
| > 200 nM | B6 |

biological target: T1, human B7H3 (CD276) on the cell surface; test: flow cytometry titration on A375 cells (B7H3+); column head 'Affinity B7H3' (apparent)
Protocol: as §1, §2

| Kd | Binder |
| --- | --- |
| 0.523 nM | B1 |
| 0.477 nM | B2 |
| 0.368 nM | B3 |
| 0.375 nM | B4 |
| 0.379 nM | B5 |
| 0.539 nM | B6 |

Source: patent US20230124851A1 (INHIBRX LNC, published 2023)
